From PMC3519778

Biological target: CD26 on human monocyte-derived immature dendritic cells (human (endogenous in monocyte-derived iDCs)) (UniProt P27487)
UniProt P27487, sequence (P27487 whole entry): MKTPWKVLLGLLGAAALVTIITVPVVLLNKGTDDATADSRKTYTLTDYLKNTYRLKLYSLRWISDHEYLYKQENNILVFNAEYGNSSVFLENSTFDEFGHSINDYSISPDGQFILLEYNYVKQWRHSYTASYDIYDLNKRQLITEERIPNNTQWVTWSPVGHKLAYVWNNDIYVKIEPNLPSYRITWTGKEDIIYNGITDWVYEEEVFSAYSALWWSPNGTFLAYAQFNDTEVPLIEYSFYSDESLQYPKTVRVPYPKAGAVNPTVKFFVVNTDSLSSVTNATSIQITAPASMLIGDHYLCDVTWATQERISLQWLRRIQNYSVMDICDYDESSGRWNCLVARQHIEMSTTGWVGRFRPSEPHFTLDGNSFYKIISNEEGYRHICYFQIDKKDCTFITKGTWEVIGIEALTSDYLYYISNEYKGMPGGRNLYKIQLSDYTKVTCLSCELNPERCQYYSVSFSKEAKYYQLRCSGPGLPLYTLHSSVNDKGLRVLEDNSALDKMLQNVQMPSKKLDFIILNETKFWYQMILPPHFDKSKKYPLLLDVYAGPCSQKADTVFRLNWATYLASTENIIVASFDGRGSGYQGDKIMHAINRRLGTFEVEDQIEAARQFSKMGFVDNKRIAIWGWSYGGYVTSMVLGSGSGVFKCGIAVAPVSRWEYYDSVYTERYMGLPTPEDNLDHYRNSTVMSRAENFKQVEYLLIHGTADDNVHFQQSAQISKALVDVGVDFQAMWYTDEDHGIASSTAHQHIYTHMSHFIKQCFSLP

- ADA-mediated upregulation of CD80 on iDCs (flow cytometry, 48 h, 2 uM ADA) after pre-incubation of the cells with the anti-CD26 mAb TA5.9 (directed against the ADA-binding epitope on CD26): 0.64 in-fold
- ADA-mediated upregulation of CD83 on iDCs (flow cytometry, 48 h, 2 uM ADA) after pre-incubation of the cells with the anti-CD26 mAb TA5.9 (directed against the ADA-binding epitope on CD26): 0.46 in-fold
B1: Adenosine deaminase (ADA, EC 3.5.4.4) from calf intestine (enzyme)
chain: MAQTPAFNKPKVELHVHLDGAIKPETILYYGRKRGIALPADTPEELQNIIGMDKPLSLPEFLAKFDYYMPAIAGCREAVKRIAYEFVEMKAKDGVVYVEVRYSPHLLANSKVEPIPWNQAEGDLTPDEVVSLVNQGLQEGERDFGVKVRSILCCMRHQPSWSSEVVELCKKYREQTVVAIDLAGDETIEGSSLFPGHVKAYAEAVKSGVHRTVHAGEVGSANVVKEAVDTLKTERLGHGYHTLEDATLYNRLRQENMHFEVCPWSSYLTGAWKPDTEHPVVRFKNDQVNYSLNTDDPLIFKSTLDTDYQMTKNEMGFTEEEFKRLNINAAKSSFLPEDEKKELLDLLYKAYGMPSPASAEQCL
